In EP2767548A2 (Argen-X B.V., dated 2014):

Biological target: Human CD16 (biotinylated, Sino Biological Inc, cat#10389-H27H1-B) (human, UniProt P08637 17-208, biotinylated)
Test: ELISA, biotinylated CD16 captured on neutravidin, anti-human Fab-HRP detection

Chain of Human CD16 (biotinylated, Sino Biological Inc, cat#10389-H27H1-B) (P08637 17-208): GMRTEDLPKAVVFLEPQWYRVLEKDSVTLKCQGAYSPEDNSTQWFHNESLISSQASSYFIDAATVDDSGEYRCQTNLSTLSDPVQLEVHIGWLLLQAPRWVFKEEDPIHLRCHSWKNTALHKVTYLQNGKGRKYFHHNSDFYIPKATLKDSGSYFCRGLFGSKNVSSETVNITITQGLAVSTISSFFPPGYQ

B1: IgG3-MAB1 (antibody)
chain 1: QLLLQESGPGLVKPSETLSLTCTVSGGSLSSSFSYWVWIRQPPGKGLEWIGTIYYSGNTYYNPSLKSRLTISVDTSKNHFSLKLSSVTAADTAVYYCARRAGILTGYLDSWGQGTLVTVSS
chain 2: SYVLTQSPSVSVAPGQTARITCGGNNIGSKSVHWYQQKPGQAPVLVVYDDSDRPSGIPERFSASNSGNTATLTISRVEAGDEADYYCQVWDSSSDHVVFGGGTKLTVL
Work on B1 yielded an EC50 of 3.58 µg/mL.
